The DeepSol protein solubility set

Assay: soluble on expression in E. coli; label from the status in PepcDB or PDB records

| Sequence | soluble on expression in E. coli |
| --- | --- |
| MGSDKIHHHHHHMAKIDFRNKINWRRRFRSPPRVETERDILRIFESDRGRIVNSPAIRRLQQKTQVFPLERNAAVRTRLTHSLEVQQVGRYIAKEVLSRLKELRLLEEYGLEELTGPFESVVEMACLMHDIGNPPFGHFGEAAINDWFRQRLAPGDALGQPLTDDRCEVQALRLHDGETSLNALRRKVRQDLCSFEGNAQGIRLVHTLMRMNLTWAQVGCILKYTRPAWWSEETPASHSYLMKKPGYYLAEEEYVARLRKELDLAPYNRFPLTWIMEAADDISYCVADLEDAVEKRIFSAEQLYQHLYDAWGSHEKGSLFSQVVENAWEKSRANYLKQSAEDQFFMYLRVNTLNKLVPYAARRFIDNLPAIFTGDFNHALLEDDSDCSQLLELYKNVAMKQVFSHPDVEQLELQGYRVISGLLDIYQPLLKLSLEDFSELVAQERVRRLPIASRLYQKLSTRHRLAYVEAVNKLARTAPEFALMEYYYRCRLIQDYISGMTDLYAWDEYRRLMAVE | not soluble |
| MRRLKRDPLERAFLRGYQNGITGKSRDLCPFTHPTTRQSWLNGWREGRGDNWDGLTGTAGLQRLNQLQHVLEHHHHHH | not soluble |
| MNKKRMIAMVSTALLVTGCAEVGNAQTVAVENSGQSVQKNIVKSIQSQANPLKTIEPSKPFEDLKPLKKMIGNAQYVGLGENTHGSSEIFTMKFRLVKYLVTEMGFTNFAMEEDWGNGLKLNEYIQTGKGNPREFLKLLYPTDEIIAMIEWMKDYNADPSNKKKIQFIGLDLKALDQGSFNKVIDYVRLHRPDLLAEVEENYKELSSFTGSIQEYMKLTPKLKEKFKANAERVARLLKDENEQANTEIIPSEYIWAKATASAIEKFTTMLLPNDYPSIIKLHEQYLADHAMWAQETFGGKTMVWAHNIHIAKGIIDEKLYPYVAGQFLKERLDNNYVTIGSTTTEGNFTLYSEYNPSTGGKITTDTIPQDVKSFNYTLGKVPYKMFLLDNRHLKGQAEKWVKAKRPLLSIGGQILPNSSVYFDTSLLEQFDIIFHIRKTSPSHIKLEHHHHHH | soluble |
| MEKTVNPFRIGIAPISWVNDDIPGLGDHYTQDQVLSEMAELGYVATEMGRLFSQDPPSLRAKLNQYGIELASKFIGVLFSDRSRLEEELETFQSWAEYLHDMGCKYAIVCEMGGSMHWDPRRAPEEKTIQRLTDSEWESLVDGLHRAAHICQELGMKLVYHFHAGTVVETAEEIDRLMELTDPNLVHLLYDTGHALYGGYDPVELLHRYADRIQYVHLKDIRRDVLEQVRREQLDFRTAVLRGMFTVPGDGCIDFVPIFSKLIEMGYNGWIIVEAEQDPAVAHPYTYAKMAKEYIDRLVHHLLAAQKR | not soluble |
| SKREHNHRRITVTAAIGNKHRRQLATNLHAIEHHAFEHFIAWVAENHFEPEADCKLGTRLRHAGVPGQQ | soluble |
| MNHLPVVGEDYVEIPDGRPFAPLAGKIEVVEIFGYTCPHCAHFDSKLQAWGARQAKDVRFTLVPAVFGGVWDPFARAYLAADVLGVAKRSHTAMFEAIHEKGSVPIQNVGPDELAVFYAGYGVQPDRFVATFNGPEVEKRFQAARAYALKVRPVGTPTIVVNGRYMVTGHDFEDTLRITDYLVSRERAASHGR | soluble |
| GSKESPLHGTQNTINKRTQPTFGFTVNWKFSESTTVFTGQCFIDRNGKEVLKTMWLLRSSVNDIGDDWKATRVGIMIFTRLRTQKEGGSGGSARKCSLTGKWTNDLGSNMTIGAVNSRGEFTGTYITAVT | soluble |
| MGSDKIHHHHHHMLLIDTHAHVLSPDRTTFPRDYGLDMAWARGDLSAQQLVAAMDESSISKTLLIQAYSAYRYDNSYLESVIGEFPDRFAGVCMVDPLARDVSDRLTSLIVDRKFAGTRIVIVQPEPRLDDPAMAPFYETCAELRTPLCVLTIPPKLKELEVPLSQWPSLQVVVEHLGLIHTASGDSVSKERPLLDLARFPNCILKFSTISLRVAAAFEGGAQGQFERLIDAFGAQRLMWGSDYPSTPEGGIPGLVNEMHQALDFLPHHDLALLSGEAACRIWSTLRPVSSRGLA | not soluble |
| MDIGLEVENIPSVNITSLKEAPIHISSKIQPHGILLVLAEPDLKILQVTNNTLNVFGRSAEDMVQKRLVDLLDAYQLDRIKSGLSEQNLEFINPTKILVRNKGIA | not soluble |
| MTENVVCTGAVNAVKEVWEKRIKKLNEDLKREKEFQHKLVRIWEERVSLTKLREKVTREDGRVILKIEKEEWKTLPSSLLKLNQLQEWQLHRTGLLKIPEFIGRFQNLIVLDLSRNTISEIPPGIGLLTRLQELILSYNKIKTVPKELSNCASLEKLELAVNRDICDLPQELSNLLKLTHLDLSMNDFTTIPLAVLNMPALEWLDMGSNKLEQLPDTIERMQNLHTLWLQRNEITCLPQTISNMKNLGTLVLSNNKLQDIPVCMEEMANLRFVNFRDNPLKLKVSLPPSEGTDEEEERELFGLQFMHTYIQESRRRADHQVNGSTTLPISINTDG | soluble |
| MGSDKIHHHHHHMYKFNPQRIQIGISACLLGEKVRFDGGHKNSTYCNQEIKQFFDYVPICPEMAIGLGAPRKSIRLVRDGETILVQSGDGSLDVTDKLNEYSENKVEELDFLGGYLLCAKSPTCGMERVTEYKIGTNNGSKSGIGVFARKLMERYPLLPVEEEGRLHDMVLRENFFTRVYAYHDWHLMKHEGLTKHKLVKFHSRYKYLLMAHSPTWYRELGPIVANIEDLEQSATRYFEGFMTALKINATRKNHTSTLQHIQGYFKKHLSKEQKTELSEAIMKYREGLLPLLVPITLINHYLREFPTPYIEEQVYLNPHPEALKLRYAY | not soluble |
| WGYECIGMFRSYQEINEYFDKYSITKYLGNTKENVHPGMLIYKDVRGQYDESTGTFGPADGIVDEQDYIKISHRASNPYGGTLNFGFSYKDFSISAQFGASWGAYSLVPTTMRKESYSEYSNVSAMWKDMFVYEDIYDANNIVTVAQNRNAKYPNIRYSSVNGAPSTFWKVSAATVQLRNMTVAYALPKEWLKIIGISSCRFNLTCQNVFNFLNPYPEGAWASWAGSYGYYPNLRKFTLGVNVSF | not soluble |
| DIGCYTLGGFEPLNAIDTTICMGASIGMAHGFEMARGKEFAKKSVAVIGDSTFWHSGVTGLIDIVYNKGHSTVIILDNSITAMTGHQENPSTGKTLSGERTNQIDFEALGRSIGINRICVVDAYDLKALEETIKEEVNAEEPSLIITKRPCVLIKGAKFDFKDYKIDP | not soluble |
| MAALAGDEAWRCRGCGTYVPLSQRLYRTANEAWHGSCFRCSECQESLTNWYYEKDGKLYCHKDYWAKFGEFCHGCSLLMTGPAMVAGEFKYHPECFACMSCKVIIEDGDAYALVQHATLYCGKCHNEVVLAPMFERLSTESVQDQLPYSVTLISMPATTECRRGFSVTVESASSNYATTVQVKEVNRMHISPNNRNAIHPGDRILEINGTPVRTLRVEEVEDAIKQTSQTLQLLIEHDPVPQRLDQLRLDARLPPHMQSTGHTLMLSTLDTKENQEGTLRRRSLRRSNSISKSPGPSSPKEPLLLSRDISRSESLRCSSSYSQQIFRPCDLIHGEVLGKGFFGQAIKVTHKATGKVMVMKELIRCDEETQKTFLTEVKVMRSLDHPNVLKFIGVLYKDKKLNLLTEYIEGGTLKDFLRSVDPFPWQQKVRFAKGISSGMAYLHSMCIIHRDLNSHNCLIKLDKTVVVADFGLSRLIVEERKRPPVEKATTKKRTLRKSDRKKRYTVVGNPYWMAPEMLNGKSYDETVDVFSFGIVLCEIIGQVYADPDCLPRTLDFGLNVKLFWEKFVPTDCPPAFFPLAAICCKLEPESRPAFSKLEDSFEALSLFLGELAIPLPAELEDLDHTVSMEYGLTRDSPP | soluble |
| YPDDLVIGNLSRRGFLKGVGATGVLLVAANWGWRDALAAEKKAFGADAMPHGWVDNPKIYVSIDRDGTVGIVCNRSEMGQGVRTSLAMVVADELEADWSRVKVIQAPGDEARYGNQDTDGSRSMRHWFEPMRRCGAAARQMLEQAAANQWKVPLGECRAEQNKVLHAPSGRSLSFGELAEAAAGLEVPARDKLLLKKPEQFRYIGKDVARAIDGADIVNGRAGFGFDARFDDMLYAVVARPPVYGGKLKRYDAAAALKVPGVVKVIEIEGRPIPSEFQPLGGVAVVAQNTWAAIKGREALVVEWDAGVNGGYDSVAYRKQLEEAARKPGKVVRDSGDAAALFAKGGDIVEAEYYLPHLAQAPMEPPVSTAWYKDGACEVWAPTQAPQVTRERIAERLKLPFDKVTVNVTLLGGGFGRKSKPDFVLEAAILAKAFPGRHLRVQWTREDDLHFSYFHTVSVERLQAVLGADGLPQAWLHRSVAPSITALFGPDSKHQGAFELGMGLTNLPFAIPNVRLENPEAPAHTRVGWFRSVSNIPHAFAIQSFVGELAAKAGQDPKDYLLKLLGPARRIDTAELGDSWNYGESPERYPLDVGRLRGVIEEAARQSGWGGELPRGRARGIAAHYSFVTYVAVVIEVEVKDDGALLVHKATIAADCGPQINPERIRSQLEGACVMGLGLAALGEISFKDGKVQQDNFHQYELARMPLAPKAVSVHLLKPDGDLPLGGVGEPGVPPIAPALCNAIFAATGKRIRELPI | not soluble |
| MERIIQQTDYDALSCKLAAISVGYLPSSGLQRLSVDLSKKYTEWHRSYLITLKKFSRRAFGKVDKAMRSSFPVMNYGTYLRTVGIDAAILEFLVANEKVQVVNLGCGSDLRMLPLLQMFPHLAYVDIDYNESVELKNSILRESEILRISLGLSKEDTAKSPFLIDQGRYKLAACDLNDITETTRLLDVCTKREIPTIVISECLLCYMHNNESQLLINTIMSKFSHGLWISYDPIGGSQPNDRFGAIMQSNLKESRNLEMPTLMTYNSKEKYASRWSAAPNVIVNDMWEIFNAQIPESERKRLRSLQFLDELEELKVMQTHYILMKAQWHHHHHH | soluble |
| MSLRSHFATQKDQWQTYTKEKKIKIGFDATFVPMGYEEKDGSYIGFDIDLANAVFKLYGIDVEWQAIDWDMKETELKNGTIDLIWNGYSVTDERKQSADFTEPYMVNEQVLVTKKSSGIDSVAGMAGKTLGAQAGSSGYDAFNASPKILKDVVANQKVVQYSTFTQALIDLNSGRIDGLLIDRVYANYYLEKSGVLDQYNVMPAGYEGESFAVGARKVDKTLIKKINQGFETLYKNGEFQKISNKWFGEDVATDQVKGKREGHHHHHH | soluble |
| MMEEQLIPIQWKDDALVLLDQTLLPNEIVYESFKTAESVWDAIQVMKVRGAPAIGVSAAYGVYLGIKEFAESTEEGFMDEVRKVCTYLATSRPTAVNLFWALERMESVATDNIHLSISQLKNRLLEEAKEIHREDEEINRQIGEHALTLFHDGMGVLTHCNAGALATTKYGTATAPMYLAKEKGWDLKIYSDETRPRLQGSTLTALELQRAGIDVTVITDNMAAMVMSQGKIDAVIVGCDRVAANGDVANKIGTLGVSILAKYYNIPFYVAAPTPTIDLKTSTGKEIPIEERDASEVINRFGKYSAPKESKVYNPAFDVTPHENVTAIITEKGIVKAPFTENLKKLFQ | not soluble |
| MSLSPAELHADSIVIDGLIIAKWNRELFEDMRKGGLTAANCTVSVWEGFQATVNNIAASNKLIRDNSDLVIPVRSTADIRKAKEQGKTGILYGFQNAHAFEDQIGYVEVFKQLGVGIVQMCYNTQNLVGTGCYERDGGLSGFGREIVAEMNRVGIMCDLSHVGSKTSEEVILESKKPVCYSHCLPSGLKEHPRNKSDEELKFIADHGGFVGVTMFAPFLKKGIDSTIDDYAEAIEYVMNIVGEDAIGIGTDFTQGHGHDFFEWLTHDKGYARRLTNFGKIVNPLGIRTVGEFPNLTETLLERGMPERVVRKVMGENWVRVLRDVEGHHHHHH | not soluble |
| SPEALRIGYQKGSIGMVLAKSHQLLEKRYPESKISWVEFPAGPQMLEALNVGSIDLGSTGDIPPIFAQAAGADLVYVGVEPPKPKAEVILVAENSPIKTVADLKGHKVAFQKGSSSHNLLLRALRQAGLKFTDIQPTYLTPADARAAFQQGNVDAWAIWDPYYSAALLQGGVRVLKDGTDLNQTGSFYLAARPYAEKNGAFIQGVLATFSEADALTRSQREQSIALLAKTMGLPAPVIASYLDHRPPTTIKPVNAEVAALQQQTADLFYENRLVPKKVDIRQRIWQPTQLEGKQLEFRVPGNENLYFQ | soluble |
